# Laboratory results reported in patent publication US20200317768A1 (published 2020).
# T1: Human latent myostatin (human, UniProt O14793 25-266; O14793 267-375)
# T1 construct: Biotinylated in the ELISAs; also called human myostatin latent form
# T1 sequence 1: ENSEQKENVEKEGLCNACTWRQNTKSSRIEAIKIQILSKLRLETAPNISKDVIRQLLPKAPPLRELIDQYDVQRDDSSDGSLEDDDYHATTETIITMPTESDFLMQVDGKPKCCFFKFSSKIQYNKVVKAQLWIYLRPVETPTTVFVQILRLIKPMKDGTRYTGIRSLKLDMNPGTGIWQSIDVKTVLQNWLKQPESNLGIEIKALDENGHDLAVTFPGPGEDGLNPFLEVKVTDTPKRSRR
# T1 sequence 2: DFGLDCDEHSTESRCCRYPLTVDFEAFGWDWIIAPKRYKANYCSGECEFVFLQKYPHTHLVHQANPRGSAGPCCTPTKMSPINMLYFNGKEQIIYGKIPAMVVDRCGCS
# T2: Human latent myostatin (human, UniProt O14793 25-266; O14793 267-375)
# T2 construct: also called human myostatin latent form
# T2 sequence 1: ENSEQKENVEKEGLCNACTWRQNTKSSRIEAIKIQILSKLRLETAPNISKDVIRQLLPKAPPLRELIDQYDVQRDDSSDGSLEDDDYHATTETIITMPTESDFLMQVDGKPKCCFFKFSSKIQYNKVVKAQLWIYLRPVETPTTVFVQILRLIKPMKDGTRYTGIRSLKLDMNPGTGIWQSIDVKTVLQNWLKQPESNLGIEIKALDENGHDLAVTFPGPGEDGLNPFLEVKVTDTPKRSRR
# T2 sequence 2: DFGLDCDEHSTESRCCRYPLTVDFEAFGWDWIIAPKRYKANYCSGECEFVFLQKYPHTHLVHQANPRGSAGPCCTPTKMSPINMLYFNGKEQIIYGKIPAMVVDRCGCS
# T3: Cynomolgus monkey latent myostatin (cynomolgus monkey, UniProt Q95J86 25-266; Q95J86 267-375)
# T3 construct: Latent form = complex of two propeptides and the mature dimer; also called Cyno latent myostatin
# T3 sequence 1: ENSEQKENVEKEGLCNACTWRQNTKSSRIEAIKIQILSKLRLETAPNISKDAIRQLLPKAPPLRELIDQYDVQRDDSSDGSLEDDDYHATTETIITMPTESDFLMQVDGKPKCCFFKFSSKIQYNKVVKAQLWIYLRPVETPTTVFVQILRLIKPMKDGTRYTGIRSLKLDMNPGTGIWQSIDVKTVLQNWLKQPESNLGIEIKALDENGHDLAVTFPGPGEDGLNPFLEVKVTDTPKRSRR
# T3 sequence 2: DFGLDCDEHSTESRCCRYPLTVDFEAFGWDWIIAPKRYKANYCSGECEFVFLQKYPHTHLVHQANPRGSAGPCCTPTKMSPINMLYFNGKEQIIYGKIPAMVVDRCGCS
# T4: Mouse latent myostatin (mouse, UniProt O08689 26-267; O08689 268-376)
# T4 construct: Latent form = complex of two propeptides and the mature dimer
# T4 sequence 1: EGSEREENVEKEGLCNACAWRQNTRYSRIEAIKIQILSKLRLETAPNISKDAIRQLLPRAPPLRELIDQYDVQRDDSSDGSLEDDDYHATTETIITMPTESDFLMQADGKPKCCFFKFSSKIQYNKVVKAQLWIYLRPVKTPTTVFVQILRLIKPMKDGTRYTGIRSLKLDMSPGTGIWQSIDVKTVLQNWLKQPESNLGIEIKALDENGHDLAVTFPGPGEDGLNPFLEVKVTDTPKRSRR
# T4 sequence 2: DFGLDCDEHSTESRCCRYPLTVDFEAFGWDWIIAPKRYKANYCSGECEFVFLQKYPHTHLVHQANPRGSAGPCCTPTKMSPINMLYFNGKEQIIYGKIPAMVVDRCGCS
# Assays:
# Human latent myostatin [1] = target: T1, Human latent myostatin; assay: SPR (BIACORE T200), 37 C, pH7.4, 1:1 fit; title prints avidity, by the text the affinity condition (capture 18.5 RU)
# Procedure: (§1) The kinetic parameters of anti-latent myostatin antibodies against human, cynomolgus monkey (cyno), and mouse latent myostatin were assessed at 37° C. at pH7.4 using a BIACORE® T200 instrument (GE Healthcare). ProA/G (Pierce) was immobilized onto all flow cells of a CM4 chip using amine coupling kit (GE Healthcare). Anti-latent myostatin antibody and analytes were prepared in ACES pH7.4 (20 mM ACES, 150 mM NaCl, 1.2 mM CaCl₂), 0.05% TWEEN® 20, 0.005% NaN₃). […] Then human, cyno, or mouse latent myostatin was injected at 3.125 to 50 nM prepared by two-fold serial dilution, followed by dissociation. The sensor surface was regenerated with 25 mM NaOH. Kinetic parameters were determined by processing and fitting the data to a 1:1 binding model using BIACORE® T200 Evaluation software, version 2.0 (GE Healthcare).
# (§2) All experimental settings were the same as in Example 7, except that measurements were also performed in ACES pH5.8 buffer in addition to ACES pH7.4 condition. Some antibodies were only measured against human latent myostatin. Antibody capture level was aimed at 185 RU and 18.5 RU, for avidity and affinity assay, respectively. Kinetic parameters were determined using 1:1 Binding fitting using BIACORE® T200 Evaluation software, version 2.0 (GE Healthcare).
# Human latent myostatin [2] = target: T1, Human latent myostatin; assay: SPR (BIACORE T200), 37 C, pH7.4, avidity condition (capture 185 RU), 1:1 fit; pH 7.4
# Procedure: as §1, §2
# Human latent myostatin [3] = target: T1, Human latent myostatin; assay: SPR (BIACORE T200), 37 C, pH5.8, avidity condition (capture 185 RU), 1:1 fit; pH 5.8
# Procedure: as §1, §2
# Human latent myostatin [4] = target: T2, Human latent myostatin; assay: SPR (BIACORE T200) 37C, pH 7.4, antibody captured by ProA/G
# Procedure: (§3) ProA/G (Pierce) was immobilized onto all flow cells of a CM4 chip using an amine coupling kit (GE Healthcare). All antibodies and analytes were prepared in ACES pH7.4 or pH5.8 buffer containing 20 mM ACES, 150 mM NaCl, 1.2 mM CaCl₂, 0.05% TWEEN®) 20, 0.005% NaN₃. […] Human, cyno, and mouse latent myostatin was injected at 3.125 to 50 nM prepared by two-fold serial dilution, followed by dissociation. The sensor surface was regenerated each cycle with 10 mM Glycine HCl pH1.5. Binding affinity was determined by processing and fitting the data to a 1:1 binding model using BIACORE® T200 Evaluation software, version 2.0 (GE Healthcare).
# [5] = target: T3, Cynomolgus monkey latent myostatin; assay: as above
# Procedure: as §3
# Mouse latent myostatin [6] = target: T4, Mouse latent myostatin; assay: as above
# Procedure: as §3
# Human latent myostatin [7] = target: T2, Human latent myostatin; assay: SPR (BIACORE T200) 37C, pH 5.8, antibody captured by ProA/G
# Procedure: as §3
# [8] = target: T3, Cynomolgus monkey latent myostatin; assay: as above
# Procedure: as §3
# Mouse latent myostatin [9] = target: T4, Mouse latent myostatin; assay: as above
# Procedure: as §3
# Human latent myostatin [10] = target: T2, Human latent myostatin; assay: SPR 37C; KD pH 5.8 / KD pH 7.4
# Procedure: as §3
# [11] = target: T3, Cynomolgus monkey latent myostatin; assay: SPR 37C; KD pH 5.8 / KD pH 7.4
# Procedure: as §3
# Mouse latent myostatin [12] = target: T4, Mouse latent myostatin; assay: SPR 37C; KD pH 5.8 / KD pH 7.4
# Procedure: as §3
Kd (Human latent myostatin [1]) [nM],koff (Human latent myostatin [1]) [s⁻¹],kon (Human latent myostatin [1]) [M⁻¹ s⁻¹],Kd (Human latent myostatin [2]) [nM],koff (Human latent myostatin [2]) [s⁻¹],kon (Human latent myostatin [2]) [M⁻¹ s⁻¹],Kd (Human latent myostatin [3]) [nM],koff (Human latent myostatin [3]) [s⁻¹],kon (Human latent myostatin [3]) [M⁻¹ s⁻¹],Kd (Human latent myostatin [4]) [nM],Kd [5] [nM],Kd (Mouse latent myostatin [6]) [nM],Kd (Human latent myostatin [7]) [nM],Kd [8] [nM],Kd (Mouse latent myostatin [9]) [nM],ratio of KD at pH 5.8/pH 7.4 (Human latent myostatin [10]),ratio of KD at pH 5.8/pH 7.4 [11],ratio of KD at pH 5.8/pH 7.4 (Mouse latent myostatin [12]),Binder
,,,,,,,,,0.164,0.189,0.176,1.52,0.929,1.02,9,5,6,"MS_M103205H1795-SG1/M103202L1060-SK1 (antibody, human IgG1, kappa, V domains shown, also called MS1032LO24-SG1) VH: QVTLKESGPVLVKPTETLTLTCTVSGIDLSHDDISWVRQAPGKGLEWVGIISYAGSTYYASWAKGRLTISKDTSKNQVVLTMTNMDPVDTATYYCARGVPAYSHGGDLWGQGTLVTVSS VL: DIVMTQSPATLSLSPGERATLSCTSSQSVFHENWLSWFQQKPGQPPKLLIYWASTLAWGVPSRFSGSGSGTDFTLTISSLQPEDAATYYCAGGYGGGRYAFGQGTKVEIKR"
,,,,,,,,,0.419,0.502,0.362,143,43.5,29.2,341,87,81,"MS_M103205H1047-SG1/M103202L889-SK1 (antibody, human IgG1, kappa, V domains shown, also called MS1032LO11-SG1) VH: QVTLKESGPVLVKPTETLTLTCTVSGIDLSHTDISWVRQAPGKGLEWVGIISYAGKKYYASWAKGRLTISKDTSKNQVVLTMTNMDPVDTATYYCARGVPAYSHGGDLWGQGTLVTVSS VL: DIVMTQSPATLSLSPGERATLSCTSSQSVYHANWLSWFQQKPGQPPKLLIYWASTLAYGVPSRFSGSGSGTDFTLTISSLQPEDAATYYCAGGYGGGRYAFGQGTKVEIKR"

# Second part, the binder before the results:
Binder,Kd (Human latent myostatin [1]) [nM],koff (Human latent myostatin [1]) [s⁻¹],kon (Human latent myostatin [1]) [M⁻¹ s⁻¹],Kd (Human latent myostatin [2]) [nM],koff (Human latent myostatin [2]) [s⁻¹],kon (Human latent myostatin [2]) [M⁻¹ s⁻¹],Kd (Human latent myostatin [3]) [nM],koff (Human latent myostatin [3]) [s⁻¹],kon (Human latent myostatin [3]) [M⁻¹ s⁻¹],Kd (Human latent myostatin [4]) [nM],Kd [5] [nM],Kd (Mouse latent myostatin [6]) [nM],Kd (Human latent myostatin [7]) [nM],Kd [8] [nM],Kd (Mouse latent myostatin [9]) [nM],ratio of KD at pH 5.8/pH 7.4 (Human latent myostatin [10]),ratio of KD at pH 5.8/pH 7.4 [11],ratio of KD at pH 5.8/pH 7.4 (Mouse latent myostatin [12])
"MS_M103205H781-SG1/M103202L719-SK1 (antibody, human IgG1, kappa, V domains shown, also called MS1032LO02-SG1; MSLO-02) VH: QVTLKESGPVLVKPTETLTLTCTVSGIDLSHTDISWVRQAPGKGLEWVGIISYAGSTYYMSWAKGRLTISKDTSKNQVVLTMTNMDPVDTATYYCARGVPAYSHGGDLWGQGTLVTVSS VL: DIVMTQSPATLSLSPGERATLSCQSSQSVYHNNWLSWFQQKPGQPPKLLIYWASTLAFGVPSRFSGSGSGTDFTLTISSLQPEDAATYYCAGGYGGGLYAFGQGTKVEIKR",1.64,0.00179,1.09e+06,0.298,0.000249,836000,24.3,0.0414,1.7e+06,,,,,,,,,
"MS_M103205H1004-SG1/M103202L889-SK1 (antibody, human IgG1, kappa, V domains shown, also called MS1032LO07-SG1) VH: QVTLKESGPVLVKPTETLTLTCTVSGIDLSHDDISWVRQAPGKGLEWVGIISYAGSMYYASWAKGRLTISKDTSKNQVVLTMTNMDPVDTATYYCARGVPAYSHGGDKWGQGTLVTVSS VL: DIVMTQSPATLSLSPGERATLSCTSSQSVYHANWLSWFQQKPGQPPKLLIYWASTLAYGVPSRFSGSGSGTDFTLTISSLQPEDAATYYCAGGYGGGRYAFGQGTKVEIKR",,,,,,,,,,0.275,0.339,0.319,46.2,34.7,30.8,168,102,97
